Assay results published in patent publication US20100048482A1 (Stanford University, published 2010).

Target: heat shock protein 90 (HSP90), endogenous, rat heart (rat, UniProt P82995 2-733, limits assumed)
Assay: co-immunoprecipitation and western blot, mitochondria of rat hearts after IR with or without 1 µM ψεHSP90 peptide
Procedure: 200-500 μg of mitochondrial or cytosolic protein was diluted into 1 ml of IP Lysis Buffer (150 mM NaCl, 10 mM Tris-HCl, 5 mM EDTA, 0.1% Triton X-100, pH=7.4, containing Sigma Protease Inhibitor 1 and Sigma Phosphatase Inhibitors 1 and 2). […] 10 μg of Protein A/G Beads (Santa Cruz Biotechnology) were added and the mixture was incubated overnight at 4° C. with inversion mixing. Beads were then centrifuged, washed 3× in IP Lysis Buffer, then re-suspended in sample buffer. Immunoprecipitated proteins were separated on 10% SDS-PAGE gels. […] A beads alone group was also included for each sample set to assess any non-specific protein binding to the beads.

fold increase in co-immunoprecipitation with ψεHSP90 peptide treatment against IR alone: ~4 fold
B1: epsilon protein kinase C (εPKC), endogenous, rat heart (enzyme)
chain: MVVFNGLLKIKICEAVSLKPTAWSLRHAVGPRPQTFLLDPYIALNVDDSRIGQTATKQKTNSPAWHDEFVTDVCNGRKIELAVFHDAPIGYDDFVANCTIQFEELLQNGSRHFEDWIDLEPEGKVYVIIDLSGSSGEAPKDNEERVFRERMRPRKRQGAVRRRVHQVNGHKFMATYLRQPTYCSHCRDFIWGVIGKQGYQCQVCTCVVHKRCHELIITKCAGLKKQETPDEVGSQRFSVNMPHKFGIHNYKVPTFCDHCGSLLWGLLRQGLQCKVCKMNVHRRCETNVAPNCGVDARGIAKVLADLGVTPDKITNSGQRRKKLAAGAESPQPASGNSPSEDDRSKSAPTSPCDQELKELENNIRKALSFDNRGEEHRASSSTDGQLASPGENGEVRQGQAKRLGLDEFNFIKVLGKGSFGKVMLAELKGKDEVYAVKVLKKDVILQDDDVDCTMTEKRILALARKHPYLTQLYCCFQTKDRLFFVMEYVNGGDLMFQIQRSRKFDEPRSGFYAAEVTSALMFLHQHGVIYRDLKLDNILLDAEGHSKLADFGMCKEGILNGVTTTTFCGTPDYIAPEILQELEYGPSVDWWALGVLMYEMMAGQPPFEADNEDDLFESILHDDVLYPVWLSKEAVSILKAFMTKNPHKRLGCVAAQNGEDAIKQHPFFKEIDWVLLEQKKMKPPFKPRIKTKRDVNNFDQDFTREEPILTLVDEAIVKQINQEEFKGFSYFGEDLMP
notes: Endogenous protein in mitochondrial or cytosolic fractions of Wistar rat hearts, immunoprecipitated from lysate; also called PKCε; epsilon PKC
